Reference: US20100254992A1 (published 2010)
Changes are numbered by the printed parent chain.

T1: human Eotaxin 3 (human, UniProt Q9Y258 24-94)
T1 sequence (looked up): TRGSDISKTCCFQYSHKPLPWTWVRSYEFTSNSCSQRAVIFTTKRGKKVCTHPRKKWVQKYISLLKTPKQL

T2: human Eotaxin 2 (human, UniProt O00175 27-104, limits assumed)
T2 sequence (looked up): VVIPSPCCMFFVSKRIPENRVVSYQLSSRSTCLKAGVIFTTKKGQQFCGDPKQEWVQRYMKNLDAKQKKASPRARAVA

T3: human MCP-2 (human, UniProt P80075 24-99)
T3 construct: also called CCL8
T3 sequence (looked up): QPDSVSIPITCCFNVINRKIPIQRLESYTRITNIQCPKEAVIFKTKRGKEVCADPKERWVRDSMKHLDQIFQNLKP

B1: CNTO 888 (antibody, V domains shown)
VH: QVQLVQSGAEVKKPGSSVKVSCKASGGTFSSYGISWVRQAPGQGLEWMGGIIPIFGTANYAQKFQGRVTITADESTSTAYMELSSLRSEDTAVYYCARYDGIYGELDFWGQGTLVTVSS
VL: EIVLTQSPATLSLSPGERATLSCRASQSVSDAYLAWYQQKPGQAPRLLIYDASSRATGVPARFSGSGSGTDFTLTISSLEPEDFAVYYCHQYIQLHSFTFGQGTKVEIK
notes: Fully human IgG1 kappa
B2: MOR03781 Fab (Fab, V domains shown)
VH: B1 VH with Q3E
VL: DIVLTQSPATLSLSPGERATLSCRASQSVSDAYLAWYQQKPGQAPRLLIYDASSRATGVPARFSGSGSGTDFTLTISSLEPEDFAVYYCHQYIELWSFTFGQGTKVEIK
notes: MOR03471 derivative (L-CDR3); Fab with C-terminal FLAG and 6x His tags; also called MOR3781; MOR3781k
B3: MOR03781 IgG1 (antibody, V domains shown)
VH: B1 VH with Q3E
VL: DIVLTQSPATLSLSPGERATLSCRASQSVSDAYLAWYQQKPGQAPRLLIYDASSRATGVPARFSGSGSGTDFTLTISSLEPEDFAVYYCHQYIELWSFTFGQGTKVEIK
notes: Human IgG1; also called MOR3781 IgG1; MOR3781k IgG
B4: MOR03850 Fab (Fab, V domains shown)
VH: B1 VH with Q3E, G50A, I52N, I54L, F55A, T57H, A58T, N59H
VL: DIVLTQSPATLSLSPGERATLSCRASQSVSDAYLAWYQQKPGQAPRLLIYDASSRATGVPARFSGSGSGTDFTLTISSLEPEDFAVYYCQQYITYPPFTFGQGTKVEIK
notes: MOR03471 cross-clone (3822 × 3819); Fab with C-terminal FLAG and 6x His tags; also called MOR3850; MOR3850k
B5: MOR03850 IgG1 (antibody, V domains shown)
VH: B1 VH with Q3E, G50A, I52N, I54L, F55A, T57H, A58T, N59H
VL: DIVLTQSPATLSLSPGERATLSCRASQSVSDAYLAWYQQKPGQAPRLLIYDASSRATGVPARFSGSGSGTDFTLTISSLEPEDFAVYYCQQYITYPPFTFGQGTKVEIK
notes: Human IgG1; also called MOR3850 IgG1; MOR3850k IgG
B6: MOR03878 Fab (Fab, V domains shown)
VH: B1 VH with Q3E, G50A, I52N, I54L, F55A, T57H, A58T, N59H
VL: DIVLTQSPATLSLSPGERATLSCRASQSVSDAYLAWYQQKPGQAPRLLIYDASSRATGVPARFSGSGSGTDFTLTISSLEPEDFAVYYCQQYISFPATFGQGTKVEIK
notes: MOR03471 cross-clone (3822 × 3794); Fab with C-terminal FLAG and 6x His tags; also called MOR3878; MOR3878k
B7: MOR03899 Fab (Fab, V domains shown)
VH: B1 VH with Q3E, G50A, I52N, I54L, F55A, T57H, A58T, N59H
VL: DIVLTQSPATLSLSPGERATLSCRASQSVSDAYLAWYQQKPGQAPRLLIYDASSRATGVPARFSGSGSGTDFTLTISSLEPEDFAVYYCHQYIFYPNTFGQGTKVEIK
notes: MOR03471 cross-clone (3822 × 3876); Fab with C-terminal FLAG and 6x His tags; also called MOR3899; MOR3899k
B8: MOR03899 IgG1 (antibody, V domains shown)
VH: B1 VH with Q3E, G50A, I52N, I54L, F55A, T57H, A58T, N59H
VL: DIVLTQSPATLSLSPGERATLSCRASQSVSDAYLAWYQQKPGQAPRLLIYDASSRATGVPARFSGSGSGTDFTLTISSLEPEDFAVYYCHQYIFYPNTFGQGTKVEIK
notes: Human IgG1; also called MOR3899 IgG1; MOR3899k IgG
B9: MOR03849 IgG (antibody, V domains shown)
VH: B1 VH with Q3E, G50A, I52N, I54L, F55A, T57H, A58T, N59H
VL: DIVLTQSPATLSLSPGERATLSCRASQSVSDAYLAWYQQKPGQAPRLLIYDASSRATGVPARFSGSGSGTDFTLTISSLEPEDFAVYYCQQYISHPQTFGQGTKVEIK
B10: MOR03878 IgG1 (antibody, V domains shown)
VH: B1 VH with Q3E, G50A, I52N, I54L, F55A, T57H, A58T, N59H
VL: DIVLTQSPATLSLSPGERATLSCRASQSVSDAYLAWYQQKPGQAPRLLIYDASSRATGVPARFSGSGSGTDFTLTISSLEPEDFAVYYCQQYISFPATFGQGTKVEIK
notes: Human IgG1; also called MOR3878 IgG1; MOR3878k IgG
B11: MOR03885 IgG (antibody, V domains shown)
VH: B1 VH with Q3E, G50A, I52N, I54L, F55A, T57H, A58T, N59H
VL: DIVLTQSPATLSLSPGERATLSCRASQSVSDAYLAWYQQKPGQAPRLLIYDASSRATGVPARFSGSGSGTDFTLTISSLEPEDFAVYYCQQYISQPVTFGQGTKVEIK
B12: MOR03754 Fab (Fab, V domains shown)
VH: QVQLVESGGGLVQPGGSLRLSCAASGFTFRSYGMSWVRQAPGKGLEWVSSIEHKWSGYATTYAASVKGRFTISRDNSKNTLYLQMNSLRAEDTAVYYCARFEFTPWTYFDFWGQGTLVTVSS
VL: DIELTQPPSVSVAPGQTARISCSGDNLGKKYVYWYQQKPGQAPVLVIYDDDNRPSGIPERFSGSNSGNTATLTISGTQAEDEADYYCQSYTAQSSASFGGGTKLTVL

Key:
human Eotaxin 3 [1] = target: T1, human Eotaxin 3; test: BIAcore
human MCP-3 [2] = target: T4, human MCP-3 (human, UniProt P80098 24-99); test: BIAcore
T4 construct: also called CCL7

human MCP-4 [3] = target: T5, human MCP-4 (human, UniProt Q99616 24-98, limits assumed); test: BIAcore
T5 construct: also called CCL13

human Eotaxin 1 [4] = target: T6, human Eotaxin 1 (human, UniProt P51671 24-97); test: BIAcore
human Eotaxin 2 [5] = target: T2, human Eotaxin 2; test: BIAcore
[6] = target: T7, Human Monocyte Chemoattractant Protein-1 (MCP-1) (human, UniProt P13500 24-99, 125I label on the radioligand form; letters are the unlabelled wild-type protein); test: cell-based or functional assay
cynomolgus monkey MCP-1 [7] = target: T8, cynomolgus monkey MCP-1 (cynomolgus monkey, UniProt P61274 24-99); test: BioVeris, Cyno MCP-1 Kd
T8 construct: also called cyno MCP-1; cyno CCL-2
Procedure: (§1) Affinity determination in solution was basically performed as described in the literature (Friguet et al., 1985). In order to improve the sensitivity and accuracy of the SET method, it was transferred from classical ELISA to ECL based BioVeris technology (Haenel et al., 2005, accepted for publication in Analytical Biochemistry). 1 mg/ml goat-anti-human (Fab)₂ or goat-anti-mouse IgG, Fc fragment specific antibodies (Jackson Immuno Research) were labelled with BV-tag™ NHS-Ester (Bioveris Europe, Witney, Oxfordshire, UK) according to manufacturer's instructions. The experiments were carried out in polypropylene microtiter plates and PBS pH 7.4 with 0.5% BSA and 0.02% Tween 20 as assay buffer. Unlabeled antigen was diluted in 4ⁿ series: For human and cyno MCP-1 a concentration range of 10 pM to 40 nM and for cross-reactivity controls (Eotaxin and MCP-2) a concentration range of 40 pM to 160 nM was chosen. Wells without antigen were used to determine Smax values. After addition of 100 pM Fab or IgG (final concentration in 75 μL final volume), the mixture was incubated for 2 hours at RT. Subsequently a mixture of 25 μl Dynabeads (0.4 mg/ml M-280 Streptavidin, DYNAL, Hamburg), coated with 0.25 μg/ml biotinylated MCP-1 (K69) and BV-tag labeled detection antibody in a final dilution of 1:4000 for anti-human Fab or 1:2000 for anti-mouse IgG were added per well.
(§2) Solution Equilibrium Titration Using BioVeris. As an alternative method for sensitive KD determinations, the solution equilibrium titration (SET) using BioVeris technology was performed. Monovalent dissociation constants were calculated by means of appropriate fit models for Fab and IgG. This method was suitable for affinity measurement and cross-reactivity studies. All selected 16 binders were analyzed by solution equilibrium titration (SET) using BioVeris (Table 5 and Table 6) and these affinity values were regarded as the final affinity values.

[8] = target: T7, Human Monocyte Chemoattractant …; test: IGEN (BioVeris), MCP-1 Kd
Procedure: as §1, §2

[9] = target: T7, Human Monocyte Chemoattractant …; test: BioVeris solution equilibrium titration, Fab, rh MCP-1
Procedure: as §1, §2

[10] = target: T7, Human Monocyte Chemoattractant …; test: 125I-MCP-1 binding to CCR2 on THP-1 cells, radioligand competition
human Eotaxin 3 [11] = target: T1, human Eotaxin 3; test: Biacore, IgG capture mode
human MCP-3 [12] = target: T4, human MCP-3; test: Biacore, IgG capture mode
human MCP-4 [13] = target: T5, human MCP-4; test: Biacore, IgG capture mode
human Eotaxin 1 [14] = target: T6, human Eotaxin 1; test: Biacore, IgG capture mode
human Eotaxin 2 [15] = target: T2, human Eotaxin 2; test: Biacore, IgG capture mode
[16] = target: T7, Human Monocyte Chemoattractant …; test: BioVeris solution equilibrium titration, IgG1, rh MCP-1
Procedure: as §1, §2

cynomolgus monkey MCP-1 [17] = target: T8, cynomolgus monkey MCP-1; test: BioVeris solution equilibrium titration, IgG1, cyno MCP-1
Procedure: as §1, §2

cynomolgus monkey MCP-1 [18] = target: T8, cynomolgus monkey MCP-1; test: BioVeris solution equilibrium titration, Fab, cyno MCP-1
Procedure: as §1, §2

human MCP-2 [19] = target: T3, human MCP-2; test: Biacore, IgG capture mode
human MCP-2 [20] = target: T3, human MCP-2; test: 125I-MCP-2 binding to CCR2 on Thp-1 cells, radioligand competition

T5 sequence (Q99616 24-98 limits assumed): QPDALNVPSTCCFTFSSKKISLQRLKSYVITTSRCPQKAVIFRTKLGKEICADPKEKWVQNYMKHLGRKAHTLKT
T8 sequence (P61274 24-99 limits assumed): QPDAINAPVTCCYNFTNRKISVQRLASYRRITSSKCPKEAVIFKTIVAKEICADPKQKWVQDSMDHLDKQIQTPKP
T4 sequence (P80098 24-99 limits assumed): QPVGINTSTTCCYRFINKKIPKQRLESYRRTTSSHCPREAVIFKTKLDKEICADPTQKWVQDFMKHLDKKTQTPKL
T6 sequence (P51671 24-97 limits assumed): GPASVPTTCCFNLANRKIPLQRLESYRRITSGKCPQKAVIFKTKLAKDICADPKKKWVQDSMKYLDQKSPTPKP
T7 sequence (P13500 24-99 limits assumed): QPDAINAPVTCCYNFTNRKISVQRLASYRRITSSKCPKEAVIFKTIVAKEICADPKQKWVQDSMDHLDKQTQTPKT

Row | Binder | Inhibition of Ca2+ Mobilization IC50 [6] | Kd (cynomolgus monkey MCP-1 [7]) | Kd [8] | Kd [9] | IC50 [10] | binding result (human Eotaxin 3 [11]) | binding result (human MCP-3 [12]) | binding result (human MCP-4 [13]) | binding result (human Eotaxin 2 [15]) | Kd [16] | Kd (cynomolgus monkey MCP-1 [17]) | other results
1 | B1 |  |  |  |  |  |  |  |  |  |  |  | binding result (human Eotaxin 3 [1]): no binding; binding result (human MCP-3 [2]): no binding; binding result (human MCP-4 [3]): no binding; binding result (human Eotaxin 1 [4]): no binding; binding result (human Eotaxin 2 [5]): no binding
2 | B2 | 21.8 nM | 0.01 nM | 0.03 nM | 0.03 nM | 0.18 nM |  |  |  |  |  |  | 
3 | B3 | 10.9 nM | 0.02 nM | 0.02 nM |  | 0.02 nM | no binding (tested: 100 nM) | no binding (tested: 100 nM) | no binding (tested: 100 nM) | no binding (tested: 100 nM) | 0.02 nM | 0.016 nM | binding result (human Eotaxin 1 [14]): no binding (tested: 100 nM)
4 | B4 | 28.4 nM | 0.04 nM | 0.04 nM | 0.04 nM | 0.16 nM |  |  |  |  |  |  | Kd (cynomolgus monkey MCP-1 [18]): 0.04 nM
5 | B5 | 9.47 nM | 0.01 nM | 0.01 nM |  | 0.05 nM | no binding (tested: 100 nM) | no binding (tested: 100 nM) | no binding (tested: 100 nM) | no binding (tested: 100 nM) | 0.011 nM | 0.021 nM | 
6 | B6 | 20.2 nM | 0.32 nM | 0.32 nM | 0.32 nM | 0.11 nM |  |  |  |  |  |  | Kd (cynomolgus monkey MCP-1 [18]): 0.32 nM
7 | B7 | 17.5 nM | 0.49 nM | 0.81 nM | 0.81 nM | 0.13 nM |  |  |  |  |  |  | Kd (cynomolgus monkey MCP-1 [18]): 0.49 nM
8 | B8 | 5.85 nM | 0.36 nM | 0.34 nM |  | 0.05 nM | no binding (tested: 100 nM) | no binding (tested: 100 nM) | no binding (tested: 100 nM) | no binding (tested: 100 nM) | 0.34 nM | 0.36 nM | 
9 | B9 |  |  |  |  |  | no binding (tested: 100 nM) | no binding (tested: 100 nM) | no binding (tested: 100 nM) | no binding (tested: 100 nM) |  |  | binding result (human MCP-2 [19]): no binding (tested: 100 nM); binding result (human Eotaxin 1 [14]): no binding (tested: 100 nM)
10 | B10 | 6.7 nM | 0.23 nM | 0.27 nM |  | 0.03 nM | no binding (tested: 100 nM) | no binding (tested: 100 nM) | no binding (tested: 100 nM) | no binding (tested: 100 nM) | 0.27 nM | 0.23 nM | 
11 | B11 |  |  |  |  |  | no binding (tested: 100 nM) | no binding (tested: 100 nM) | no binding (tested: 100 nM) | no binding (tested: 100 nM) |  |  | binding result (human MCP-2 [19]): no binding (tested: 100 nM); binding result (human Eotaxin 1 [14]): no binding (tested: 100 nM)
12 | B12 |  |  |  |  |  |  |  |  |  |  |  | IC50 (human MCP-2 [20]): ≥ 2000 nM
